Columns and labels:
HSV-1 (KOS) gL86 = test: HSV-1 entry into CHO-K1 cells expressing gD receptors, virus pre-incubated with CN (Example 2); format: cell-based, herpes simplex virus type-1; settings: virus 30 pfu/cell pre-incubated 90 min, read after 6 hr
Description: Viral Entry Assay. Viral entry assays were based on quantitation of β-galactosidase expressed from the viral genome in which β-galactosidase expression is inducible by HSV infection. Cells were transiently transfected in 6-well tissue culture dishes, using Lipofectamine 2000 (In vitrogen Corp) with plasmids expressing HSV-1 entry receptors (necitn-1, HVEM and 3-OST-3 expression plasmids) at 1.5 μg per well in 1 ml. At 24 hr post-transfection, cells were re-plated in 96-well tissue culture dishes (2×10^4 cells per well) at least 16 hr prior to infection. Cells were washed and exposed to serially dilute pre-incubated virus with […] or with 1×PBS at two fold dilutions for 2 hr at room temperature. In a parallel experiment the cells were also pre-incubated with NBE for 2 hr at room temperature before infection with virus. Later the cells were washed with 1×PBS and allowed 6 hr at 37° C. before solubilization in 100 μl of PBS containing 0.5% NP-40 and the -galactosidase substrate, o-nitro-phenyl-D-galactopyranoside (ONPG; ImmunoPure, PIERCE, Rockford, Ill., 3 mg/ml). The enzymatic activity was monitored at 410 nm by spectrophotometry at several time points after the addition of ONPG in order to define the interval over which the generation of the product was linear with time. Microscopy was performed using 20×objective of the microscope (Nikon). The slide book version 3.0 was used for images. All experiments were repeated a minimum of three times.
CN blocks herpes simplex virus type-1 (HSV-1) entry into CHO-K1 cells expressing gD receptors. […] After 6 hr at 37° C., the cells were washed, permeabilized with 100 μl of PBS containing 0.5% NP-40 and incubated with ONPG substrate (3.0 mg/ml) for quantitation of β-galactosidase activity expressed from the input viral genome. The enzymatic activity was measured at an optical density of 410 nm (OD 410).

[1] = tested on: β-galactosidase-expressing recombinant Adenovirus; test: Adenovirus infection of HeLa cells (Example 7); format: cell-based; settings: pre-incubated 90 min
Description: HeLa cells were infected with a β-galactosidase-expressing recombinant Adenovirus were pre-incubated with CN at (1) the dilution indicated in FIG. 11, panel A (stock concentration 22 nM) or (2) the concentrations indicated in FIG. 11, panel B, or mock treated with 1 X phosphate saline buffer for 90 min at room temperature. After 12 hr, the cells were washed, permeabilized and incubated with ONPG substrate (3.0 mg/ml) for quantitation of β-galactosidase activity expressed from the input viral genome. Positive (Pos) infected with virus alone; Negative (Neg) uninfected control. The enzymatic activity was measured at an optical density of 410 nm (OD 410).

[2] = tested on: HSV-1 glycoproteins (gB, gD, gH-gL) mediated cell-to-cell fusion; test: Virus-free HSV-1 glycoprotein-mediated cell-to-cell fusion assay (Example 12); format: cell-based, human
Description: FIG. 15A-B show the inhibition of HSV-1 glycoprotein-induced cell-to-cell fusion by CN and proposed model for CN-based anti-HSV-1 activity during cell entry. (A) In this experiment the naturally susceptible target human corneal fibroblasts (CF) cells expressing gD-receptors and luciferase gene were pre-incubated with 1 μM contortrostatin (CN) and mixed in 1:1 ratio with the effector Chinese hamster ovary (CHO-K1) cells expressing herpes simplex virus type-1 (HSV-1) glycoproteins (gB, gD, gH-gL) along with T7 plasmid (white bar indicated as treated [Tr]). In parallel, CN-untreated CF cells were similarly mixed with effector cells as positive control (+; black bar). The target CF cells co-cultured with effector cells devoid of HSV-1 glycoproteins were considered as negative control (−; grey bar). Membrane fusion as a means of viral spread was detected by monitoring luciferase activity. Relative luciferase units (RLUs) were determined using a Sirius luminometer (Berthoid Detection Systems, Titertek Instruments, Inc., Huntsville, Ala., USA). Error bars represent SD. (B) A cartoon illustrates the CN-mediated HSV-1 inhibition that might affect three major steps (a-c) that are involved during HSV-1 entry. (a) CN (presented by hatching) binding to host cell surface integrin (presented by α and β subunits) may affect HSV -1 glycoprotein H (gH) binding to integrins. […]

B1: contortrostatin (protein)
chain: DAPANPCCDAATCKLTTGSQCADGLCCDQCKFMKEGTVCRRARGDDLDDYCNGISAGCPRNPFHA
HSV-1 viral entry (β-galactosidase activity, OD 410) (HSV-1 (KOS) gL86; CHO-K1 cells expressing 3-OST-3): blocked viral entry
HSV-1 viral entry (β-galactosidase activity, OD 410) (HSV-1 (KOS) gL86; CHO-K1 cells expressing HVEM): blocked viral entry
HSV-1 viral entry (β-galactosidase activity, OD 410) (HSV-1 (KOS) gL86; CHO-K1 cells expressing nectin-1): blocked viral entry
Adenovirus infection of HeLa cells (β-galactosidase activity, OD 410) ([1]; 12 hr): blocks infection
IC50 ([1]; β-galactosidase read after 12 hr): 2.75 nM
polykaryocyte formation ([2]; CN-treated target cells co-cultured with effector cells, data not shown): failed to form polykaryons
cell-to-cell fusion (luciferase activity, RLU) ([2]; target human CF treated with 1 μM, effector CHO-K1 cells expressing gB, gD, gH-gL, 1:1): impaired cell-to-cell fusion

— patent US20130177528A1, “COMPOSITIONS AND METHODS FOR INHIBITING VIRAL INFECTION” (WESTERN UNIVERSITY OF HEALTH SCIENCES, priority 2011, published 2013)
